{
  "source": "patent US20250352624A1",
  "about": "“SUPEROXIDE DISMUTASE AND USES THEREOF FOR PREVENTING OR TREATING DRY EYE SYNDROME” (GENOFOCUS, INC., priority 2021, published 2025)",
  "format_in_all_cases": "in vivo",
  "key": {"[1]": {"tested_on": "experimental dry eye (EDE)-induced C57BL/6 mouse model", "experiment": "Tear volume (phenol red thread) in experimental dry eye mice", "method": "(§1) To induce experimental dry eye, 7- to 8-week-old C57BL/6 mice (purchased from Damool Science) were injected subcutaneously with scopolamine hydrochloride at 0.5 mg/0.2 ml three times a day under exposure to a ventilating device for 18 hours a day. The humidity was maintained at 30%, and the temperature was maintained at 25° C. The C57BL/6 mice were classified into 7 groups, depending on concentrations of the oral drug to be administered, as shown in Table 6.\n(§2) After inducing experimental dry eye in the experimental mice, the drugs prepared in Example 3 were orally administered at 2 μL per dose once a day to the treatment groups (administered at 13:30 every day). In both eyes of all mice, at baseline, day 5, and day 10, tear volume and tear film break-up time were measured and corneal fluorescent staining score was examined. The mice were then sacrificed and tissue analysis was performed. Each group consisted of 6 animals.\nTear volume was determined as follows. A phenol red-impregnated cotton thread was brought into contact for 20 seconds with the conjunctival sac on the lateral canthus side of each mouse, and the length was measured using SMZ microscopy. Then, the measured length was converted into a volume by substituting it into a given formula (see Villareal A L, Farley W, Pflugfelder S C. Effect of topical ophthalmic epinastine and olopatadine on tear volume in mice. Eye Contact Lens. 2006; 32:272-6)."}, "[2]": {"tested_on": "experimental dry eye (EDE)-induced C57BL/6 mouse model", "experiment": "Tear film break-up time in experimental dry eye mice", "method": "as §1, §2\nTo evaluate tear film stability, which is known to be the most important clinical factor in dry eye, tear film break-up time was measured. 1 μl of 1% fluorescent dye (fluorescein) was instilled into the lower conjunctival sac of each mouse, and then each mouse was allowed to blink about three times. Subsequently, the eyes were gently made open, and then the time (seconds) until the first defect occurred in the stained tear film was measured using a slit lamp microscope equipped with a cobalt blue filter. This was repeated three times to obtain the average value."}, "[3]": {"tested_on": "experimental dry eye (EDE)-induced C57BL/6 mouse model", "experiment": "Reactive oxygen species (DCF-DA) by flow cytometry", "method": "as §1, §2\nThe cornea, conjunctiva, and lacrimal gland were excised, sectioned with scissors, and then shaken with 0.5 mg/mL of collagenase type D (manufactured by Roche Applied Science, Indianapolis, IN, USA) at 37° C. for 60 minutes. The tissue was ground and then allowed to pass through a cell strainer, followed by centrifugation. The number of CD4+IFN-γ+T cells was calculated by performing flow cytometry with fluorescein-conjugated anti-CD4 antibody and phycoerythrin-conjugated anti-IFN-γ antibody, and the number of DCF-DA cells was calculated using the CM-H2DCFDA kit (manufactured by Thermo Fisher Scientific, Waltham, MA, USA)."}, "[4]": {"details": "before drug administration, 2.5 mg/kg oral group"}, "[5]": {"details": "before drug administration, 5 mg/kg oral group"}, "[6]": {"details": "before drug administration, 10 mg/kg oral group"}, "[7]": {"details": "day 5 of administration, 2.5 mg/kg oral once a day"}, "[8]": {"details": "day 5 of administration, 5 mg/kg oral once a day"}, "[9]": {"details": "day 5 of administration, 10 mg/kg oral once a day"}, "[10]": {"details": "day 10 of administration, 2.5 mg/kg oral once a day"}, "[11]": {"details": "day 10 of administration, 5 mg/kg oral once a day"}, "[12]": {"details": "day 10 of administration, 10 mg/kg oral once a day"}, "[13]": {"details": "days 5 and 10, 0.05% CsA eye drop, SodA2 2.5, 5 and 10 mg/kg oral"}},
  "data": [
    {"molecule": "SodA2: variant Mn-SOD of Bacillus amyloliquefaciens GF423 sodA, Asn73 and Asn136 replaced with Asp, SEQ ID NO: 4; given orally shellac-coated, mixed with dextrin (protein, listed as Bacillus amyloliquefaciens, shellac coating; dextrin mixture) MAYKLPELPYAYDALEPHIDKETMTIHHTKHHNTYVTNLNKAIEGSALAEKSVDELVADLNAVPEDIRTAVRDDGGGHANHSLFWTLLSPNGGGEPTGELAEEIKSTFGSFDQFKEKFAAAAAGRFGSGWAWLVVDDGKLEITSTPNQDSPLSEGKTPVLGLDVWEHAYYLNYQNRRPDYISAFWNVVNWDEVARLYSEAK", "values": [
      {"measurement": "tear volume as compared with the 0.05% CsA group", "setting": "[1]; 5 mg/kg oral", "result": "more significant increase"},
      {"measurement": "tear volume", "setting": "[1]; [4]", "result": "0.024 ± 0.003", "unit": "µL"},
      {"measurement": "tear volume", "setting": "[1]; [5]", "result": "0.022 ± 0.004", "unit": "µL"},
      {"measurement": "tear volume", "setting": "[1]; [6]", "result": "0.023 ± 0.004", "unit": "µL"},
      {"measurement": "tear volume", "setting": "[1]; [7]", "result": "0.026 ± 0.005", "unit": "µL"},
      {"measurement": "tear volume", "setting": "[1]; [8]", "result": "0.026 ± 0.005", "unit": "µL"},
      {"measurement": "tear volume", "setting": "[1]; [9]", "result": "0.026 ± 0.005", "unit": "µL"},
      {"measurement": "tear volume", "setting": "[1]; [10]", "result": "0.027 ± 0.005", "unit": "µL"},
      {"measurement": "tear volume", "setting": "[1]; [11]", "result": "0.03 ± 0.005", "unit": "µL"},
      {"measurement": "tear volume", "setting": "[1]; [12]", "result": "0.028 ± 0.004", "unit": "µL"},
      {"measurement": "tear volume as compared with the EDE and vehicle groups", "setting": "[1]; [13]", "result": "significant increase"},
      {"measurement": "tear film break-up time as compared with the 0.05% CsA group", "setting": "[2]; 5 mg/kg and 10 mg/kg oral", "result": "similar"},
      {"measurement": "tear film break-up time", "setting": "[2]; [4]", "result": "1.44 ± 0.15", "unit": "s"},
      {"measurement": "tear film break-up time", "setting": "[2]; [5]", "result": "1.42 ± 0.16", "unit": "s"},
      {"measurement": "tear film break-up time", "setting": "[2]; [6]", "result": "1.41 ± 0.25", "unit": "s"},
      {"measurement": "tear film break-up time", "setting": "[2]; [7]", "result": "1.23 ± 0.2", "unit": "s"},
      {"measurement": "tear film break-up time", "setting": "[2]; [8]", "result": "1.31 ± 0.3", "unit": "s"},
      {"measurement": "tear film break-up time", "setting": "[2]; [9]", "result": "1.28 ± 0.3", "unit": "s"},
      {"measurement": "tear film break-up time", "setting": "[2]; [10]", "result": "1.21 ± 0.3", "unit": "s"},
      {"measurement": "tear film break-up time", "setting": "[2]; [11]", "result": "1.28 ± 0.3", "unit": "s"},
      {"measurement": "tear film break-up time", "setting": "[2]; [12]", "result": "1.3 ± 0.3", "unit": "s"},
      {"measurement": "tear film break-up time as compared with the EDE and vehicle groups", "setting": "[2]; [13]", "result": "significant increase"},
      {"measurement": "amount of reactive oxygen species generated", "setting": "[3]; conjunctiva, 2.5 mg/kg oral once a day", "result": "55.13±7.41", "unit": "%"},
      {"measurement": "amount of reactive oxygen species generated", "setting": "[3]; conjunctiva, 5 mg/kg oral once a day", "result": "57.63±8.16", "unit": "%"},
      {"measurement": "amount of reactive oxygen species generated", "setting": "[3]; conjunctiva, 10 mg/kg oral once a day", "result": "53.29±1.19", "unit": "%"},
      {"measurement": "effect of decreasing generation of reactive oxygen species as compared with the CsA group", "setting": "[3]; cornea, 2.5 mg/kg oral", "result": "better effect"},
      {"measurement": "amount of reactive oxygen species generated", "setting": "[3]; cornea, 2.5 mg/kg oral once a day", "result": "33.57±26.51", "unit": "%"},
      {"measurement": "amount of reactive oxygen species generated", "setting": "[3]; cornea, 5 mg/kg oral once a day", "result": "54.53±13.53", "unit": "%"},
      {"measurement": "amount of reactive oxygen species generated", "setting": "[3]; cornea, 10 mg/kg oral once a day", "result": "57.38±23.43", "unit": "%"},
      {"measurement": "amount of reactive oxygen species generated", "setting": "[3]; lacrimal gland, 2.5 mg/kg oral once a day", "result": "59.05±10.77", "unit": "%"},
      {"measurement": "amount of reactive oxygen species generated", "setting": "[3]; lacrimal gland, 5 mg/kg oral once a day", "result": "56.03±6.37", "unit": "%"},
      {"measurement": "amount of reactive oxygen species generated", "setting": "[3]; lacrimal gland, 10 mg/kg oral once a day", "result": "49.92±4.19", "unit": "%"}
    ]}
  ]
}
